Columns and labels:
[1] = biological target: T1, CD28-Fc (provided by Simon Davis, Oxford University) (human, UniProt P10747 19-152, limits assumed); assay: binding ELISA, coated CD28-Fc
T1 construct: Gift reagent; not shown: Fc part
Method: (§1) The plates were washed (Wash buffer: PBS+0.05% Tween 20 (PBST) Medicago #09-9410-100) and then blocked in PBST+3% BSA (Merck, #1.12018.0100). The plates were washed again and sample or controls (serially diluted 1/3 from […]) were added to the wells. The samples were incubated for 1 h at room temperature and then washed. Detection antibody, goat-anti-human IgG Fγy-HRP (Jackson, #109-035-098) was added and the plates were subsequently developed using SuperSignal Pico Chemiluminescent substrate (Thermo #37069) and detected with an Envision reader (Perkin Elmer).

[2] = biological target: T2, human CTLA4-Fc (Fitzgerald #30R-CD152) (human, UniProt P16410 38-152); assay: binding ELISA, CTLA4-Fc coated, sample titrated, anti-human IgG Fc-HRP, chemiluminescence, data normalised to % [upper panel]
T2 construct: Bought reagent; also called biotinylated-CTLA4; human CTLA-4 (Fitzgerald); not shown: Fc part of the bought fusion
Method: as §1

[3] = biological target: T2, human CTLA4-Fc (Fitzgerald #30R-CD152); assay: inhibition ELISA: sample titrated, pre-incubated with biotinylated CTLA4-Fc, mixture added to coated wildtype CD86-Fc (competitor), streptavidin-HRP [lower panel]
Method: (§2) The plates were washed (Wash buffer: PBS+0.05% Tween 20 (PBST) Medicago #09-9410-100) and then blocked in PBST+3% BSA (Merck, #1.12018.0100). The sample (CD86 mutant or wild type protein; serially diluted 1/4 from 30000 to 0.3 ng/ml) was incubated with biotinylated-CTLA4 (Fitzgerald #30R-CD152) in room temperature 1 h, the mixture was then added to the blocked wells in the ELISA plate. Detection was performed with Streptavidin-HRP (Pierce #21126) and the plates were subsequently developed using SuperSignal Pico Chemiluminescent substrate (Thermo #37069) and detected with Envision reader (Perkin Elmer).

[4] = biological target: T2, human CTLA4-Fc (Fitzgerald #30R-CD152); assay: inhibition ELISA; best molecule is 1040 by Table 8
Method: as §2

[5] = biological target: T2, human CTLA4-Fc (Fitzgerald #30R-CD152); assay: binding ELISA, coated CTLA4-Fc; high end tied to 1040 by Table 7
Method: as §1

[6] = biological target: T2, human CTLA4-Fc (Fitzgerald #30R-CD152); assay: binding ELISA, coated CTLA4-Fc; low end tied to 1042 by Table 7
Method: as §1

[7] = biological target: T3, CD40-Fc (R&D #1493-CD) (human, UniProt P25942 21-193); assay: SPR (Biacore 3000), CD40-Fc immobilised, control antibody injected
T3 construct: Bought reagent immobilised on the Biacore chip; also called human CD40; not shown: Fc part of the bought fusion
Method: CD40-Fc (R&D #1493-CD) was immobilized to the BIAcore sensorship, CMS, using conventional amine coupling. 0.5 uM Bispecific construct (957/530) was injected over immobilized CD40 for 3 minutes and the dissociation was followed for 3 minutes. 2.17 uM CTLA4-Fc (Orencia, Bristol-Mayers Squibb) was injected over the CD40-Bispecific complex for 3 minutes and the dissociation phase was followed for 3 minutes. The chip was finally regenerated using 10 mM Glycine, pH 1.7. A Biacore 3000 instrument was used according to the manufacturer's protocols.

[8] = biological target: T2, human CTLA4-Fc (Fitzgerald #30R-CD152); assay: binding ELISA, CTLA4-Fc coated, sample titrated, anti-human IgG Fc-HRP, chemiluminescence
Method: The plates were washed (Wash buffer: PBS+0.05% Tween 20 (PBST) Medicago #09-9410-100) and then blocked in PBST+3% BSA (Merck, #1.12018.0100). […] The samples were incubated for 1 h at room temperature and then washed. Detection antibody, goat-anti-human IgG Fcγ-HRP (Jackson, #109-035-098) was added and the plates were subsequently developed using SuperSignal Pico Chemiluminescent substrate (Thermo #37069) and detected with Envision reader (Perkin Elmer).

[9] = biological target: T4, CTLA4-Fc (Orencia, Bristol-Mayers Squibb) (human, UniProt P16410 38-152); assay: dual ELISA: CD40-Fc coated, antibody at 0.2 ug/ml captured, biotinylated CTLA4-Fc titrated, streptavidin-HRP
T4 construct: Commercial drug Orencia; Biotinylated in the dual ELISA; also called soluble CTLA-4; human CTLA-4; not shown: Fc part of Orencia
Method: In short, 96-well flat bottom plate high binding plates (Greiner #655074) were coated with CD40-Fc (Ancell # 504-820) by incubating overnight at 4° C. The plates were washed (Wash buffer: PBS+0.05% Tween 20 (PBST) Medicago #09-9410-100) and then blocked in PBST+3% BSA (Merck, #1.12018.0100). […] The samples were incubated for 1 h at room temperature and then washed.

[10] = biological target: T2, human CTLA4-Fc (Fitzgerald #30R-CD152); assay: Biacore SPR, CD28/CTLA-4 Kd ratio against that of wild type
Method: The CD86 mutant molecules and controls (serially diluted 1/2 100-1.5 nM) were analyzed for binding in HBs-P (GE, BR-1003-69) at a flow rate […]. The association was followed for 3 minutes and the dissociation for 10 minutes. Regeneration was performed twice using 5 mM NaOH for 30 seconds. The kinetic parameters and the affinity constants were calculated using BlAevaluation 4.1 software.

[11] = biological target: T2, human CTLA4-Fc (Fitzgerald #30R-CD152); assay: binding ELISA, CD28/CTLA-4 EC50 ratio against that of wild type
Method: The plates were washed (Wash buffer: PBS+0.05% Tween 20 (PBST) Medicago #09-9410-100) and then blocked in PBST+3% BSA (Merck, #1.12018.0100).
The plates were washed again and sample or controls (serially diluted 1/5 from 200-0.001 μg/ml) were added to the wells. The samples were incubated for 1 h at room temperature and then washed. Detection antibody, goat-anti-human IgG Fcγ-HRP (Jackson, #109-035-098) was added and the plates were subsequently developed using SuperSignal Pico Chemiluminescent substrate (Thermo #37069) and detected with an Envision reader

T2 sequence (P16410 38-152 limits assumed): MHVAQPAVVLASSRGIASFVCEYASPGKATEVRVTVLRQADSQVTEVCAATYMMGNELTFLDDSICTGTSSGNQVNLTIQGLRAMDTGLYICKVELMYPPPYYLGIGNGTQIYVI
T3 sequence (P25942 21-193 limits assumed): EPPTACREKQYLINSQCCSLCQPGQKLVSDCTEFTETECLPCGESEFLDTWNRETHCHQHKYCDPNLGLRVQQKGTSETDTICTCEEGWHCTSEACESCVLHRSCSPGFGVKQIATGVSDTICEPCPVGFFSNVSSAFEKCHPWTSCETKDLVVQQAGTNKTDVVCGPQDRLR
T4 sequence (P16410 38-152 limits assumed): as the sequence (P16410 38-152 limits assumed) above

B1: CD86 mutant clone 1040, gamma2/gamma4 fusion (Fc fusion)
chain: APLKIQAYFNETADLPCQFANSQNLSLSELVVFWQDQENLVLNEVYLGKERFDSVDSKYMGRTSFDSDSWTLRLHNLQIKDKGRYQCIIHHKKPTGMINIHQMNSELSVLA
notes: Expressed as gamma2/gamma4 fusion, protein A purified; not shown: gamma2/gamma4 Fc
For B1, the binding result [1] was “no binding”, the “EC50 (read off the curve)” value [2] was roughly 0.009 µg/mL and the “IC50 (read off the curve)” value [3] was roughly 0.05 µg/mL. The “fold improvement of IC50 over wild type” value [4] was greater than 100 fold and the “fold improvement of EC50 over wild type” value [5] was 2 to 67 fold.

B2: CD86 mutant clone 1042, gamma2/gamma4 fusion (Fc fusion)
chain: APLKIQAYFNETADLPCQFANSQNLSLSELVVFWQDQENLVLNEVYLGKEIFDSVSSKYMGRTSFDSDSWTLRLHNLQIKDKGIYQCIIHHKKPSGMVKIHQMDSELSVLA
notes: as for B1
B2 was tested, and the binding result [1] was “no binding”, the “EC50 (read off the curve)” value [2] was roughly 0.3 µg/mL and the “fold improvement of EC50 over wild type” value [6] was 2 to 67 fold.

B3: Antibody A2-54 (monospecific anti-CD40) (antibody, human IgG1, kappa, V domains shown)
VH: EVQLLESGGGLVQPGGSLRLSCAASGFTFSDYYMSWVRQAPGKGLEWISSISSNGIYIYYADSLKGRFTISRDNSKNTLYLQMNSLRAEDTAVYYCARAPVDYSNPSGMDVWGQGTLVTVSS
VL: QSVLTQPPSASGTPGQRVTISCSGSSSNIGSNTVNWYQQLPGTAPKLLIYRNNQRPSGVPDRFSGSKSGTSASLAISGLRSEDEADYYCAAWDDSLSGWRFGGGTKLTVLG
notes: VH-gamma1 / VL-kappa; also called control Ab
B3: binds [7]; no binding (tested: log 1.2 µg/mL (about 16 µg/mL)) [8]; no binding (tested: 20 µg/mL of hCTLA-4-bio) [9].

B4: CD86 mutant clone 904, gamma2/gamma4 Fc fusion (Fc fusion)
chain: LKIQAYFNETADLPCQFANSQNQSLSELIVFWQDQENLVLNEVYLGKERFDAVDSKYMGRTSFDSDSWTLRLHNLQIKDKGIYQCIIHHKKPSGMVKIHQMDSELSVLA
notes: Fusion to gamma2/gamma4 Fc, HEK293; not shown: gamma2/gamma4 Fc
In the case of B4, the “fold of Kd binding ratio over wild type protein CD86” value [10] is reported as greater than 4 fold.

B5: CD86 mutant clone 907, gamma2/gamma4 Fc fusion (Fc fusion)
chain: LKIQAYFNETADLPCQFANSQNQSLSELVVFWQDQENLVLNEVYLGKEKFDSVHSKYMGRTSFDSDSWTLRLHNLQIKDKGLYQCIIHHKKPTGMIKIHEMNSELSVLA
notes: as for B4
B5 was tested, and the “fold of EC50 binding ratio over wild-type protein CD86” value [11] was roughly 10 fold.

Source: patent US20170304437A1 (ALLIGATOR BIOSCIENCE, published 2017)
